Test results taken from paper PMC5041073.

Target: Dbf4(5)Rad53 chimera (Dbf4-SGASG-Rad53) (S. cerevisiae) (UniProt P32325)
Assay: AUC; sedimentation velocity, 50,000 rpm, 20 °C, 2 to 310 μM, 0.2 M NaCl, 0.02 M TRIS-HCl pH 8.0, 1.4 mM 2-mercaptoethanol, 5% v/v glycerol; weighted-average s isotherm fitted to a reversible monomer-dimer equilibrium; dimer to monomers

Kd: 130 µM
stoichiometry N: 2
Substance: Dbf4(5)Rad53 chimera (Dbf4-SGASG-Rad53) (from UniProt P32325 105-220; P22216 22-162)
